The text below walks through data of paper PMC5999986.

The series has as its target DosRK182R (Mycobacterium tuberculosis, UniProt P9WMF9 1-217, K182R). Nature of the series: EMSA; 4, 8, 16 uM protein; 20 mM MgCl2; […]; ITC: 20 mM Tris pH 8.0, 200 mM NaCl, 25 C, […]. To be noted: protein: recombinant; tags: His6 (pET28a); chain copies: 2; label: none (ethidium bromide stain); blunt.

B1: 20-bp DosR regulon consensus DNA (EM1/EM2) (dsDNA)
DNA 1: TTGGGGACTAAAGTCCCTAA
DNA 2: TTAGGGACTTTAGTCCCCAA
As for B1, the binding result is reported as “binds”.
